This data set is described as follows: yeast display, Sf9 membrane polyspecificity reagent, FACS + sequencing; frameworks hold sequencing errors. Put shortly: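 Nanobodies from a synthetic yeast display library (Saccharomyces cerevisiae BJ5465), induced 36–48 hours with galactose, were stained 1 hour at 4 °C with 10% biotinylated, detergent-solubilized Sf9 membrane reagent, enriched on streptavidin microbeads, then FACS-sorted. Anti-HA (expression) and streptavidin (reagent binding) fluorescence set low and high (top ~1%) gates. Polyreactivity labels come from the gate of origin. Genes were colony-PCR amplified, MiSeq 2 × 250 sequenced and filtered by CDR length.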
On to “QVQLVESGGGLVQAGGSLRLSCAASGSTFPVNAMGWYRQAPGKERELVARIRGSGGSTYYADSVKGRFTISRDNAKNTVYLQMKSLKPEDTAVYYCAARYIGYSSYKYDYWGQGTQVTVSS”, for which the “polyreactivity (PSR sort gate)” value was “high polyreactivity”.

As to “QVQLVESGGGLVQAGGSLRLSCAASGSTFPVYAMGWYRQAPGKERELVAAISRSGASTYYAASVKGRFTISRDNAKNTVDLQMNSLKPDDTAVYYCARGYQGRLKYEYWGQGTQVTVSS”, the “polyreactivity (PSR sort gate)” value is “low polyreactivity”.

In the case of “QVQLVESGGGLVQAGGSLRLSCAASGSTFPVYAMGWYRQAPGKERELVASISSGGSTYYADSVKGRFTISRDNAKNTVYLQMNSLKPEDTAVYYCAKDPWVESFVIYDYWGQGTQVTVSS”, the “polyreactivity (PSR sort gate)” value is on record as “low polyreactivity”.

Turning to “QVQLVESGGGLVQAGGSLRLSCAASGSTFPVYAMGWYRQAPGKERELVATISYSGGSTNYADSVKGRFTISRDNAKNTVYLQMNSLKPEDTAVYYCAKRYKRYVYWRSHGDYNYWGQGTQVTVSS”, the “polyreactivity (PSR sort gate)” value is “high polyreactivity”.

Take “QVQLVESGGGLVQAGGSLRLSCAASGSTFPVYTLGWYRQAPGKERELVAAISWRGTSTYADSVKGRFTISRDNGKNNVYLQMNRLIPEDTAVYYCAAGDTRGMDYWGQGTQVTVSS”: the “polyreactivity (PSR sort gate)” value is on record as “high polyreactivity”.

Turning to “QVQLVESGGGLVQAGGSLRLSCAASGSTFPVYVMGWYRQAPGKERELVAAITRIGGSTYYADSVKGRFTISRDNAKNTVYLQMNSLKPEDTAVYYCAAGGTARDDSWGQGTQVTVSS”, the “polyreactivity (PSR sort gate)” value is “low polyreactivity”.

In the case of “QVQLVESGGGLVQAGGSLRLSCAASGSTFPWNAMGWYRQAPGKERELDAAIRTGGGRTYYADSVKGRFTISRDNAKNTVYLQMNSLKPEDTAVYYCNAYQSSGRYRNSYGYWGQGTQVTVSS”, the “polyreactivity (PSR sort gate)” value is given as “high polyreactivity”.

Take “QVQLVESGGGLVQAGGSLRLSCAASGSTFPWYAMVWYRQAPGKERELVAAIRWRGGSTYYADSVKGRFTISRDNAKNTVYLQMNSLKPEDTAVYYCAADPTYLRTLRFGSYDYWGQGTQVTVSS”: the “polyreactivity (PSR sort gate)” value was “high polyreactivity”.

Turning to “QVQLVESGGGLVQAGGSLRLSCAASGSTFPYAMGWYTQAPGKEREFVAAITRSGGSTYYADSVKGRFTISRDNAKNTVYLQMNSLKPEDTAVYYATQRCVWGYHYWGQGTQVTVSS”, the “polyreactivity (PSR sort gate)” value is recorded as “high polyreactivity”.

“QVQLVESGGGLVQAGGSLRLSCAASGSTFPYNAMGWYRQAPGKERELVAAITSDDTTNYADSVKGRFTISRDNAKNTVYLQMNSLKPEDTAVYYCAAEYRYPYLRGAGDYWGQGTQVTVSS”: the “polyreactivity (PSR sort gate)” value was “low polyreactivity”.

In the case of “QVQLVESGGGLVQAGGSLRLSCAASGSTFPYNAMGWYRQAPGKERELVAAITSSGRTNYADSVKGRFTISRDNAKNTDYLQMNSLKPEDTAVYYCAAVRWYAHRVDYWGQGTQVTVSS”, the “polyreactivity (PSR sort gate)” value is on record as “low polyreactivity”.

“QVQLVESGGGLVQAGGSLRLSCAASGSTFPYNTMGWYRQAPGKEREFVAAITGDGGTTYYADSVKGRFTISRDNAKNTVYLQMNSLKPEDTAVYYCAVPYPAEGYGGDYWGQGSQVTVSS”: the “polyreactivity (PSR sort gate)” value is listed as “low polyreactivity”.

On to “QVQLVESGGGLVQAGGSLRLSCAASGSTFPYNVMGWYRPAPGKERELVAAISYSGGNTYYADSVKGRFTISRDNAKNTVYLQMNSLKPEDTAVYYCAKARRGGRGSIKYDYWGQGTQVTVSS”, for which the “polyreactivity (PSR sort gate)” value is on record as “high polyreactivity”.

On to “QVQLVESGGGLVQAGGSLRLSCAASGSTFPYPYTMGWYRQAPGKERELVAVISRTGGSTFYADSVKGRFTISRDNAKNTVYLQMNSLKPEDTAVYYCAARYAVGAHYDYWGQGTQVTVSS”, for which the “polyreactivity (PSR sort gate)” value is “high polyreactivity”.

As for “QVQLVESGGGLVQAGGSLRLSCAASGSTFPYYAMGWYRQAPGKEMELVASIRKRGGGTYYADSVKGRFTISRDNAKNTVYLQMNSLKPEDTAVYYCAVRVYQFRYTGYDYWGQGTQVTVSS”, the “polyreactivity (PSR sort gate)” value was “high polyreactivity”.

As for “QVQLVESGGGLVQAGGSLRLSCAASGSTFPYYAMGWYRQAPGKEREFVAAISYRGGSTYYADSVKGRFTISRDNAKNTVYLQMNSLKPEDTAVYYCAARSWQDRYANGYNYWGQGTQVTVSS”, the “polyreactivity (PSR sort gate)” value is on record as “high polyreactivity”.

As for “QVQLVESGGGLVQAGGSLRLSCAASGSTFPYYAMGWYRQAPGKERELVAAITSGGSTNYADSVKGRFTISRDNAKNTVYLQMNSLKPEDTAVYYCNADTTYLSDYVTFDYWGQGTQVTVSS”, the “polyreactivity (PSR sort gate)” value is listed as “low polyreactivity”.

In the case of “QVQLVESGGGLVQAGGSLRLSCAASGSTFPYYARGWYRQAPGKERELVAAITSGGSTNYADSVKGRFTISRDNAKNTVYLQMNSLKPEDTAVYYCAARLRYTTVIYYYWGQGTQVTVSS”, the “polyreactivity (PSR sort gate)” value is given as “high polyreactivity”.

As for “QVQLVESGGGLVQAGGSLRLSCAASGSTFPYYTMGGYRQAPGKERELVAAISWRGGSTYYADTVKGRFSISRDNAKNTVYLQMNSLKPEDTAVYYCAARYGVFGYDYWGQGTQVTVSS”, the “polyreactivity (PSR sort gate)” value is on record as “high polyreactivity”.

As to “QVQLVESGGGLVQAGGSLRLSCAASGSTFQANDMGWYRQAPGKERELVAAISTGGSSTYYADSVKGRFTISRDNAKNTVYLQMNCLKPEDTAVYYCAVDGLGGREGYWGQGTQVTVSS”, the “polyreactivity (PSR sort gate)” value is “high polyreactivity”.

Regarding “QVQLVESGGGLVQAGGSLRLSCAASGSTFQENAMGWYRQAPGKEREFVAAISGSGGSTYYADSVKGRFTISRDNAKNTVYLQMNSLKPEDTAVYYCAARHYFRSRRRYDYWGQGTQVTVSS”, the “polyreactivity (PSR sort gate)” value is given as “low polyreactivity”.

Take “QVQLVESGGGLVQAGGSLRLSCAASGSTFQGNAMGWYRQAPGKERELVAAISKRGGSTYYADSVKGRFTISRDNAKNTVYLQMNSLKPEDTAVYFCNAKLFASRGYYFGGAYQYGYWGQGTQVTVSS”: the “polyreactivity (PSR sort gate)” value is given as “high polyreactivity”.

Take “QVQLVESGGGLVQAGGSLRLSCAASGSTFQGYAMGWYRQAPGKERELVAAISRSGSGTYYADSVKGRFTISRDNAKNTVYLQMNSLKPEDTAVYYCAKDDVRRSTSRHYYYWGHGTQVTVSS”: the “polyreactivity (PSR sort gate)” value is “high polyreactivity”.

Regarding “QVQLVESGGGLVQAGGSLRLSCAASGSTFQGYDMGWYRQAPGKERELVAAINYSGGSTYYADSVKGRFTISRDNAKNTVYLQLNSLKPEDTAVFYCNADGYSQFWYEYYYCGQGTQVTVSS”, the “polyreactivity (PSR sort gate)” value was “high polyreactivity”.

Take “QVQLVESGGGLVQAGGSLRLSCAASGSTFQIYAMGWYRQAPGKEWELVAAITSSSSTNYADSVKGRFTISRDNAKNTVYLQMNSLKPEDTAVYYCAADVSWRSNWYDYWGQGTQVTVSS”: the “polyreactivity (PSR sort gate)” value is recorded as “low polyreactivity”.

For the sequence “QVQLVESGGGLVQAGGSLRLSCAASGSTFQIYAMGWYRQAPGNERELVAAITSSSSTNYADSVKGRFTISRDNAKNTVYLQMNSLKPEDTAVYYCAADVSWRSNWYDYWGQGTQVTVSS”, the “polyreactivity (PSR sort gate)” value was “low polyreactivity”.

With “QVQLVESGGGLVQAGGSLRLSCAASGSTFQLYAMGWYRQAPGKERELVAAISGIGDSTYYADSVKGRFTISRDNAKYTVYLQMNSLKPEDTAVYYCAREFCDGLSGKFDYWGQGTQVNVSS”, the “polyreactivity (PSR sort gate)” value is reported as “low polyreactivity”.

Take “QVQLVESGGGLVQAGGSLRLSCAASGSTFQNYAMGWYIQAPGKERELVAAIRGNGGITYYADSVKGRFTISRDNAKNTVYLQMNSLKPEDTAVYYFAVRSAWVYGIRRDYWGQGTQVTVSS”: the “polyreactivity (PSR sort gate)” value is reported as “high polyreactivity”.

For “QVQLVESGGGLVQAGGSLRLSCAASGSTFQNYAMGWYRQAPGKERELVAAINWSGGSTYYADSVKVRFTISRDNAKNTVYLQMNSLKPEDTAVYYCATDDPLAYGSFGPYQPYDYWGQGTQVTVSS”, the “polyreactivity (PSR sort gate)” value was “low polyreactivity”.

For “QVQLVESGGGLVQAGGSLRLSCAASGSTFQPYAMGWYREAPGKERELVATITWRGGRTYYADSVKGRFTISRDNAKYTVYLQMNSLKPEDTAVYYCNVAYRGFRYYYWGQGTQVNVSS”, the “polyreactivity (PSR sort gate)” value is “high polyreactivity”.
